Where “and” joins values, the source holds several entries; their conditions need not be identical. Equal entries are not always repeated.
Target: CD40 receptor on cells (HEK293 reporter cells expressing CD40; primary human B cells) (human) (UniProt P25942)
Assay: cell-based or functional assay

Chain of CD40 receptor on cells (HEK293 reporter cells expressing CD40; primary human B cells) (human) (P25942 21-277): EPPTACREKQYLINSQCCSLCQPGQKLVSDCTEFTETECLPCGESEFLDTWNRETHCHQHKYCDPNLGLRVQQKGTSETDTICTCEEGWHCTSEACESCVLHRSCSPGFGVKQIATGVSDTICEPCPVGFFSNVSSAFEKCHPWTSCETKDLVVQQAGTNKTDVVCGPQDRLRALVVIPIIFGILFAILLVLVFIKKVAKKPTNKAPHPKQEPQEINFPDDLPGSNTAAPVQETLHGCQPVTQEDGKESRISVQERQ
Chain of anti-CD40 monoclonal antibody corresponding to sequence 21.4.1 of U.S. Pat. No. 7,338,660 B2 (VH): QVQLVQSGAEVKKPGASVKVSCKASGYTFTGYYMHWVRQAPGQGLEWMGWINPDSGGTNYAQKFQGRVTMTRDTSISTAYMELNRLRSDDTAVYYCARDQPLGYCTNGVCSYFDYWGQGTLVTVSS
Chain of anti-CD40 monoclonal antibody corresponding to sequence 21.4.1 of U.S. Pat. No. 7,338,660 B2 (VL): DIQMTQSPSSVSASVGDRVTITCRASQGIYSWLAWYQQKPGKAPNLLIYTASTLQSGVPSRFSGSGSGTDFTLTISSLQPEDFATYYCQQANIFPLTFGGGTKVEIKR

EC50 [nM], % CD86, human B cells with FAP-CHO, w HSA: 0.88 nM and 0.3 nM
EC50 [nM], % CD86, human B cells with FAP-CHO, w/o HSA: 1.9 nM and 0.51 nM
EC50 [nM], MFI CD86, human B cells with FAP-CHO, w HSA: 0.51 nM and 2.05 nM
EC50 [nM], MFI CD86, human B cells with FAP-CHO, w/o HSA: 1.13 nM and 4.73 nM
Efficacy [MFI at highest dose], MFI CD86, human B cells with FAP-CHO, w HSA: 1530 MFI and 1870 MFI
Efficacy [MFI at highest dose], MFI CD86, human B cells with FAP-CHO, w/o HSA: 1340 MFI and 2060 MFI
Efficacy [MFI at highest dose], MFI CD86, human B cells with WT-CHO (no FAP), w HSA: 1470 MFI and 1900 MFI
Efficacy [MFI at highest dose], MFI CD86, human B cells with WT-CHO (no FAP), w/o HSA: 1390 MFI and 2050 MFI
Substance: anti-CD40 monoclonal antibody corresponding to sequence 21.4.1 of U.S. Pat. No. 7,338,660 B2

Reference: patent US20240279309A1
